“And” between values parts separate entries of the source, which are not always exact repeats. Identical values can stand only once.
What was measured:
[1] = test system: Cultured control human myoblasts; experiment: Beta-defensin 3 and innate immune response, real-time qPCR of IFIH1, ISG20, DEFB103; type: cell-based
Description: Cultured control human myoblasts were grown to 80% confluence and infected with equivalent titers of lenti-GFP, lenti-DUX4-s and lenti-DUX4-fl in growth media supplemented with 8 μg/mL polybrene. Expression of innate immune responsive genes including IFIH1 (MDA5), ISG20 and DEFB103 were assessed by real-time qPCR as previously described at 24 hours (primer sequences below). For conditioned media, cells were infected with lenti-DUX4-fl for 12 hours, thoroughly washed 3 times with PBS and switched to fresh growth media to condition for 12 hours. Control conditioned media was produced from cells not infected with any lentivirus. Myoblasts were infected with lenti-GFP in either control conditioned media, lenti-DUX4-fl conditioned media or regular growth media supplemented with 1 μM human β-defensin 3 (Peptides International, Louisville, Ky.). Expression of innate immune responsive genes were examined after 24 hours.

[2] = test system: Cultured control myoblasts; experiment: Beta-defensin 3 on myoblasts in growth media, expression arrays and MSTN qPCR; type: cell-based, human
Description: Cultured control myoblasts were grown at 50% confluence and treated with 1 μM human β-defensin 3. Equivalent volume of vehicle (water) was added to myoblasts for the control condition. Quadruplicate samples of control- and DEFB103-treated myoblasts were assessed for global expression changes on HumanHT-12 v4 Expression BeadChip Whole Genome arrays and analyzed as described in main methods. Differential expression of myostatin (MSTN) was confirmed by real-time qPCR.

[3] = test system: Cultured primary muscle cells; experiment: Beta-defensin 3 and myotube formation, immunostaining for myosin heavy chain; type: cell-based; conditions: 0.5 uM, 72 hours in differentiation medium
Description: Cultured primary muscle cells were cultured in differentiation medium for 72 hours in the presence or absence of 0.5 uM Human β-defensin 3.

[4] = test system: control myoblasts in differentiation media
Description: Cultured control myoblasts were grown to confluence and switched to differentiation media (as described in Snider et al., 2010). 24 hours later, media was refreshed and either supplemented with 1 μM human β-defensin 3 or equivalent volume of water. Media was refreshed again at 48 hours. Cells were differentiated for a total of 72 hours. Quadruplicate samples were analyzed by expression microarrays as described above.

B1: DEFB103: human β-defensin 3 peptide (Peptides International), polypeptide SEQ ID NO:178 (peptide, listed as Homo sapiens)
chain: MRIHYLLFALLFLFLVPVPGHGGIINTLQKYYCRVRGGRCAVLSCLPKEEQIGKCSTRGRKCCRRKK
induction of innate immune genes by lenti-GFP ([1]; RT-qPCR of IFIH1 and ISG20, FIG. 8): inhibited the induction of the innate immune response to lenti-GFP
viral entry and transduction ([1]; copies of viral integrants and GFP mRNA): did not prevent viral entry and transduction
mRNA for myostatin ([2]; RT-qPCR, myoblasts): increased the mRNA for myostatin
gene expression changes in myoblasts ([2]; expression arrays, 2-fold change threshold): did not alter the expression of any genes
myostatin upregulation ([2]; expression arrays, myoblasts): approximately 50%
muscle cell fusion and myosin heavy chain expression [3]: inhibits muscle cell fusion and expression of myosin heavy chain
log2 FC defMT/MT, CYP2J2 [4]: −1.05
expression of muscle differentiation genes (ACTA1, CKM, CASQ2, MYH2, TNNT3) ([4]; RT-qPCR, FIG. 11): inhibits the expression of genes necessary for normal muscle differentiation
number of genes with reduced expression ([4]; differentiating muscle cells vs untreated control): 44 genes
log2 FC defMT/MT, ACTA1 ([4]; gene ACTA1, log2 ratio of expression in DEFB103 treated muscle cells compared to control muscle cells, differentiation media): −2.65
log2 FC defMT/MT, AIF1L ([4]; gene AIF1L, DEFB103 treated vs control differentiating muscle cells): −1.16
log2 FC defMT/MT, AKR1C2 ([4]; gene AKR1C2, DEFB103 treated vs control differentiating muscle cells): 1.41
log2 FC defMT/MT, ANGPTL4 ([4]; gene ANGPTL4, DEFB103 treated vs control differentiating muscle cells): 1.21
log2 FC defMT/MT, ARPP-21 ([4]; gene ARPP-21, DEFB103 treated vs control differentiating muscle cells): −1.06
log2 FC defMT/MT, ATP2A2 ([4]; gene ATP2A2, DEFB103 treated vs control differentiating muscle cells): −1.04
log2 FC defMT/MT, CACNG1 ([4]; gene CACNG1, DEFB103 treated vs control differentiating muscle cells): −1.58
log2 FC defMT/MT, CASQ2 ([4]; gene CASQ2, DEFB103 treated vs control differentiating muscle cells): −2.00
log2 FC defMT/MT, CKB ([4]; gene CKB, DEFB103 treated vs control differentiating muscle cells): −1.16
log2 FC defMT/MT, CKM ([4]; gene CKM, DEFB103 treated vs control differentiating muscle cells): −1.90
log2 FC defMT/MT, CTGF ([4]; gene CTGF, DEFB103 treated vs control differentiating muscle cells): −1.12
log2 FC defMT/MT, DKK1 ([4]; gene DKK1, DEFB103 treated vs control differentiating muscle cells): 1.22
log2 FC defMT/MT, ENO3 ([4]; gene ENO3 (two array entries), DEFB103 treated vs control differentiating muscle cells): −1.51 and −1.47
log2 FC defMT/MT, FOLR1 ([4]; gene FOLR1 (two array entries), DEFB103 treated vs control differentiating muscle cells): −1.10 and −1.03
log2 FC defMT/MT, HBEGF ([4]; gene HBEGF, DEFB103 treated vs control differentiating muscle cells): −1.10
log2 FC defMT/MT, HES6 ([4]; gene HES6, DEFB103 treated vs control differentiating muscle cells): −1.24
log2 FC defMT/MT, HFE2 ([4]; gene HFE2, DEFB103 treated vs control differentiating muscle cells): −1.04
log2 FC defMT/MT, HMOX1 ([4]; gene HMOX1, DEFB103 treated vs control differentiating muscle cells): 1.66
log2 FC defMT/MT, HRC ([4]; gene HRC, DEFB103 treated vs control differentiating muscle cells): −1.40
log2 FC defMT/MT, IL32 ([4]; gene IL32, DEFB103 treated vs control differentiating muscle cells): −1.03
log2 FC defMT/MT, LMCD1 ([4]; gene LMCD1, DEFB103 treated vs control differentiating muscle cells): −1.03
log2 FC defMT/MT, LOC389827 ([4]; gene LOC389827 (two array entries), DEFB103 treated vs control differentiating muscle cells): −1.48 and −1.38
log2 FC defMT/MT, MME ([4]; gene MME, DEFB103 treated vs control differentiating muscle cells): 1.27
log2 FC defMT/MT, MT1X ([4]; gene MT1X, DEFB103 treated vs control differentiating muscle cells): 1.65
log2 FC defMT/MT, MYBPH ([4]; gene MYBPH, DEFB103 treated vs control differentiating muscle cells): −1.49
log2 FC defMT/MT, MYH3 ([4]; gene MYH3, DEFB103 treated vs control differentiating muscle cells): −2.20
log2 FC defMT/MT, MYH7 ([4]; gene MYH7, DEFB103 treated vs control differentiating muscle cells): −1.73
log2 FC defMT/MT, MYH8 ([4]; gene MYH8, DEFB103 treated vs control differentiating muscle cells): −2.62
log2 FC defMT/MT, MYL1 ([4]; gene MYL1 (two array entries), DEFB103 treated vs control differentiating muscle cells): −1.18 and −1.11
log2 FC defMT/MT, MYL6B ([4]; gene MYL6B, DEFB103 treated vs control differentiating muscle cells): −1.00
log2 FC defMT/MT, MYLPF ([4]; gene MYLPF, DEFB103 treated vs control differentiating muscle cells): −1.53
log2 FC defMT/MT, MYOM1 ([4]; gene MYOM1, DEFB103 treated vs control differentiating muscle cells): −1.20
log2 FC defMT/MT, NDRG1 ([4]; gene NDRG1, DEFB103 treated vs control differentiating muscle cells): 1.01
log2 FC defMT/MT, PLIN2 ([4]; gene PLIN2 (two array entries), DEFB103 treated vs control differentiating muscle cells): 1.61 and 1.79
log2 FC defMT/MT, PRAGMIN ([4]; gene PRAGMIN, DEFB103 treated vs control differentiating muscle cells): −1.10
log2 FC defMT/MT, RASSF4 ([4]; gene RASSF4, DEFB103 treated vs control differentiating muscle cells): −1.03
log2 FC defMT/MT, SMPX ([4]; gene SMPX, DEFB103 treated vs control differentiating muscle cells): −1.76
log2 FC defMT/MT, SMYD1 ([4]; gene SMYD1, DEFB103 treated vs control differentiating muscle cells): −1.07
log2 FC defMT/MT, TNNC1 ([4]; gene TNNC1, DEFB103 treated vs control differentiating muscle cells): −1.45
log2 FC defMT/MT, TNNC2 ([4]; gene TNNC2, DEFB103 treated vs control differentiating muscle cells): −1.49
log2 FC defMT/MT, TNNT1 ([4]; gene TNNT1, DEFB103 treated vs control differentiating muscle cells): −1.00
log2 FC defMT/MT, TNNT3 ([4]; gene TNNT3 (two array entries), DEFB103 treated vs control differentiating muscle cells): −1.55 and −1.52
log2 FC defMT/MT, TPM2 ([4]; gene TPM2, DEFB103 treated vs control differentiating muscle cells): −1.41
log2 FC defMT/MT, VASH2 ([4]; gene VASH2, DEFB103 treated vs control differentiating muscle cells): −1.22
log2 FC defMT/MT, ZFP106 ([4]; gene ZFP106, DEFB103 treated vs control differentiating muscle cells): −1.09

Source: US20140242093A1, “METHODS AND COMPOSITIONS FOR MODULATING THE INNATE IMMUNE RESPONSE AND/OR MYOGENESIS IN A MAMMALIAN SUBJECT” (FRED HUTCHINSON CANCER RESEARCH CENTER, priority 2011, published 2014)
